One assay addresses T1, elastin (human lung) (human, UniProt P15502 27-786).
T1 sequence: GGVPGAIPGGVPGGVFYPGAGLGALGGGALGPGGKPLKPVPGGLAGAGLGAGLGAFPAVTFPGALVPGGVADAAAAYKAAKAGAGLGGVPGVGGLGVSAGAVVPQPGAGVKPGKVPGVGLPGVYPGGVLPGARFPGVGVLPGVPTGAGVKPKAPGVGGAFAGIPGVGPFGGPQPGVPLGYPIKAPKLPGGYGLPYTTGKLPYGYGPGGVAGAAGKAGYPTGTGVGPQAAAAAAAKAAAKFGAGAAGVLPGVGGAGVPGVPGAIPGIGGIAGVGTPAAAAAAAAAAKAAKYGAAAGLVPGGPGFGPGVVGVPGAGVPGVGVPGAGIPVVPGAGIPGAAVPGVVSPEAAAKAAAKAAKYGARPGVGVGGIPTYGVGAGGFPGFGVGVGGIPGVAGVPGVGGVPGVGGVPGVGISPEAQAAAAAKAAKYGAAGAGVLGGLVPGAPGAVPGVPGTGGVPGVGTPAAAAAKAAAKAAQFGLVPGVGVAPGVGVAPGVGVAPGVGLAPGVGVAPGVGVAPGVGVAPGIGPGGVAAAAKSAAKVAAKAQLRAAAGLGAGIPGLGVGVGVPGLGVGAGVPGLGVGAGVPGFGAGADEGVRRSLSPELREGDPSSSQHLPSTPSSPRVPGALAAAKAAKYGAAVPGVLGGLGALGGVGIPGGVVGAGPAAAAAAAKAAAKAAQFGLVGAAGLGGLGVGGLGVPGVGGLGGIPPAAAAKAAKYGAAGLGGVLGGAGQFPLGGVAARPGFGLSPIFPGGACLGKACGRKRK
Put plainly: western blot overlay of rPTRP with ECM protein; same result by ELISA.

A further assay has as its target T2, human collagen I (human, UniProt P02452 162-1218; P08123 80-1119).
T2 construct: Chemicon; also called Col I
The assay is described as above.

In assay [1] the target is T3, collagen II (human cartilage) (human, UniProt P02458 182-1241).
T3 construct: Chemicon; also called Col II
T3 sequence (P02458 182-1241 limits assumed): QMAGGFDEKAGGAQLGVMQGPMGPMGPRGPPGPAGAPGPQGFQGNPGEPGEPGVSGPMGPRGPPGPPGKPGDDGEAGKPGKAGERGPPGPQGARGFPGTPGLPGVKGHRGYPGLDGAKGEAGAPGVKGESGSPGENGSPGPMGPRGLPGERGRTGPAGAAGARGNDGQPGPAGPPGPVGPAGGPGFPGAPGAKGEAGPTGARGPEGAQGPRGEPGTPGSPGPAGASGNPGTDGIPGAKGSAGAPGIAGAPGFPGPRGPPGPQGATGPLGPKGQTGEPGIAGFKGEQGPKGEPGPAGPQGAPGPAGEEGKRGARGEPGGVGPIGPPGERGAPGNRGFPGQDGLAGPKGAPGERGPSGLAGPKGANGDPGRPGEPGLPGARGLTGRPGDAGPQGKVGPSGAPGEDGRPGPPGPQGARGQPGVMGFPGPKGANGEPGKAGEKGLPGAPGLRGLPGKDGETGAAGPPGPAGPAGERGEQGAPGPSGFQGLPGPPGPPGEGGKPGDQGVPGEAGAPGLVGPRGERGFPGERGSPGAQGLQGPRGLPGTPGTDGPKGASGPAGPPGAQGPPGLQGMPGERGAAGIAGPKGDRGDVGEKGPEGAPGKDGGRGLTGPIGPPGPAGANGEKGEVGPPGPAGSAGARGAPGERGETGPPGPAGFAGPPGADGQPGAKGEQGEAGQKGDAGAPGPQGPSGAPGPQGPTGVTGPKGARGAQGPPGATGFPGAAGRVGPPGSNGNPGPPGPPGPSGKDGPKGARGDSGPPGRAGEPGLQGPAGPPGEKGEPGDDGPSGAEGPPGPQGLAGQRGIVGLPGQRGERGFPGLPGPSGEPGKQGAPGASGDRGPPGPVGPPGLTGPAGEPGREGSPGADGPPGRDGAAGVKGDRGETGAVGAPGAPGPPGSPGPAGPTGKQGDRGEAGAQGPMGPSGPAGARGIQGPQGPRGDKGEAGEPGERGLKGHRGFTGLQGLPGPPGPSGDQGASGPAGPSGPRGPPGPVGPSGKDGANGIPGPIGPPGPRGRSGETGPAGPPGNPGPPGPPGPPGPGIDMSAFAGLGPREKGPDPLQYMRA
Described as above.

Assay [2] has as its target T4, collagen III (human placenta) (human, UniProt P02461 154-1221).
T4 construct: Chemicon; also called Col III
T4 sequence: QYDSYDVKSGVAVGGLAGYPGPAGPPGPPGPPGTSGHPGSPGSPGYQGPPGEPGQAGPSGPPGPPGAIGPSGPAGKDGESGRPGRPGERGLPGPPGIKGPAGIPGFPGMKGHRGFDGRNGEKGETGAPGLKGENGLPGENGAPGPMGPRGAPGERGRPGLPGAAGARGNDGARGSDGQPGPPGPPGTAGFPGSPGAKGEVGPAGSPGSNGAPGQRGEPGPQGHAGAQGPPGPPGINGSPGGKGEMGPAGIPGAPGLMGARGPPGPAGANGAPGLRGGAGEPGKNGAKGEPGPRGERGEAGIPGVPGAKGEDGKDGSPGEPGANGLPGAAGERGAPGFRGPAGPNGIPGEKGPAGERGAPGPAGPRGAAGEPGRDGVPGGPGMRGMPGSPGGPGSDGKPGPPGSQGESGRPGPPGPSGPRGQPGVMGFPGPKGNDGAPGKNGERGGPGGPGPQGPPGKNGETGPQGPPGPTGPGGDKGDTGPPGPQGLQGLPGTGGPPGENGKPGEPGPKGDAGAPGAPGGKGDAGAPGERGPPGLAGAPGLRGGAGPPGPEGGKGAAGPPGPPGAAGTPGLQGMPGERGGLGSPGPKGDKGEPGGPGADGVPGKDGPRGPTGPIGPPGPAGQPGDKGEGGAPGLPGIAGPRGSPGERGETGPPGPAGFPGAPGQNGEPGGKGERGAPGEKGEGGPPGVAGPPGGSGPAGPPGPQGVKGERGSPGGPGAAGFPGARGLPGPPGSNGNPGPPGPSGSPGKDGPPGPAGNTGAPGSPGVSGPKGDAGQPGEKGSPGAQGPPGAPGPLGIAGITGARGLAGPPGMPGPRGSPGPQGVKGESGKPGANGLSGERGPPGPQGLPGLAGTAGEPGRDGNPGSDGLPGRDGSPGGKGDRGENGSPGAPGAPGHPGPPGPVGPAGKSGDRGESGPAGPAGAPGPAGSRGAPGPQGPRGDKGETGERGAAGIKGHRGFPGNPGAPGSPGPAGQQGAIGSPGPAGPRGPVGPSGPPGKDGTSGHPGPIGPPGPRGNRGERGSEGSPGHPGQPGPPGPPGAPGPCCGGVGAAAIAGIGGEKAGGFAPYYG
The description is as above.

In assay [3] the target is T5, collagen IV (human placenta) (human, UniProt P02462 28-1669; P08572 26-1712).
T5 construct: Chemicon; also called Col IV
The assay is described as above.

Assay [4] deals with vitronectin (human plasma) (human, UniProt P04004 20-478). The description is as above.
vitronectin (human plasma), sequence (P04004 20-478 limits assumed): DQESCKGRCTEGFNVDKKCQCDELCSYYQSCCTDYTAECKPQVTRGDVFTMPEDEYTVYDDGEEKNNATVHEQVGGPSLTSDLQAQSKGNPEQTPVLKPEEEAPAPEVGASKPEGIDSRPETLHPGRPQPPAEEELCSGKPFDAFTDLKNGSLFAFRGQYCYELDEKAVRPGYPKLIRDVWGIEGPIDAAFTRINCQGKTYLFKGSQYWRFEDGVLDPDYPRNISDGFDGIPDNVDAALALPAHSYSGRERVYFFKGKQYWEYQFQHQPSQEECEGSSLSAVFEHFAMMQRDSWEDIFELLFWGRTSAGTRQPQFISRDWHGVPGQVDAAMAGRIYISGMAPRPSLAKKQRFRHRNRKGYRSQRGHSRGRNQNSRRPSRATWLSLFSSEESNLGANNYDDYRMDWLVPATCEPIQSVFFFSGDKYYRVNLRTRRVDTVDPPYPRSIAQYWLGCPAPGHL
Assay [5] concerns the target T6, fibrinogen (human plasma) (human, UniProt P02671 20-629; P02675 31-491; P02679 27-437).
T6 sequence 1: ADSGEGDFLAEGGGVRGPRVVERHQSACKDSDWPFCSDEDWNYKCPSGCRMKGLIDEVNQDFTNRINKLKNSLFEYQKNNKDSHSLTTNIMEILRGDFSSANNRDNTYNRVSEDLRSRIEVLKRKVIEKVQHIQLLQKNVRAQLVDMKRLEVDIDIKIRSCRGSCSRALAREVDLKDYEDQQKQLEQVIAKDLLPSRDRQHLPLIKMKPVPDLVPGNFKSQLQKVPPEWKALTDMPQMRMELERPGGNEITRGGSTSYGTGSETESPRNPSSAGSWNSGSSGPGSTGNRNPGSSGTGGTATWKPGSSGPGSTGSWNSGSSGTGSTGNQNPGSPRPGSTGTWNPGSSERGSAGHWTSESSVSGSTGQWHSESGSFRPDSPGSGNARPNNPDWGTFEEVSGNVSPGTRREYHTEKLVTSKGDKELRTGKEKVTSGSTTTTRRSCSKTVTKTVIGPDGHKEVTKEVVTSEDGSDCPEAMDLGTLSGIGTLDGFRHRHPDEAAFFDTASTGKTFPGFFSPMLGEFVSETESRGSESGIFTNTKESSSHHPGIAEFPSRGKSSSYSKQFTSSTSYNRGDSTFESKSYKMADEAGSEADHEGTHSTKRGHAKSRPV
T6 sequence 2: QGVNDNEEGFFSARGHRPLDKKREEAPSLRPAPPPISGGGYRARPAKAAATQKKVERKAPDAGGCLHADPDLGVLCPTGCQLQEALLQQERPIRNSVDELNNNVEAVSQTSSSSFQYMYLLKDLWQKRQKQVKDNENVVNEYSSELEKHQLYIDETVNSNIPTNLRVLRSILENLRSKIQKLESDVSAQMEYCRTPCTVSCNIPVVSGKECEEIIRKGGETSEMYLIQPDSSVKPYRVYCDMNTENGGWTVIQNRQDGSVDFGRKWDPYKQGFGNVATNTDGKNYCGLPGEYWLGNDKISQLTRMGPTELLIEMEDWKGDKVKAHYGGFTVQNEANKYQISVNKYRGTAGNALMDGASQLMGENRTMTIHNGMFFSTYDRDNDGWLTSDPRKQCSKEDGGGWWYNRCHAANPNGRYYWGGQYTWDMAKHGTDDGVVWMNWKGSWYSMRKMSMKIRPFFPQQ
T6 sequence 3: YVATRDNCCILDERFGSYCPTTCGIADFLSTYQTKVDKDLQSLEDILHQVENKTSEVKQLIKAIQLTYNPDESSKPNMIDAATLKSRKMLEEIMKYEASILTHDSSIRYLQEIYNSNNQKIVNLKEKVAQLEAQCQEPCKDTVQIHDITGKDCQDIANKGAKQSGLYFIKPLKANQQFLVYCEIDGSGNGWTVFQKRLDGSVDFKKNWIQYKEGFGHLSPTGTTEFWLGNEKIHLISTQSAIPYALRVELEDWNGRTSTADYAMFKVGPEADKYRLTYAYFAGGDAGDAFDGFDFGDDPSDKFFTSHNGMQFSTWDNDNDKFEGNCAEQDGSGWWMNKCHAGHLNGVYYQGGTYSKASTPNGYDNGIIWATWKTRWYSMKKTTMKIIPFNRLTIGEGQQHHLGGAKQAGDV
Described as above.

Assay [6] concerns the target Thrombospondin (human platelet) (human, UniProt P07996 19-1170). Put plainly: western blot overlay: rPTRP on the blot, ECM protein 5 µg/ml, anti-ECM antibody. On the technique in general: Immunoblotting shows a protein as a band on a membrane.

Thrombospondin (human platelet), sequence (P07996 19-1170 limits assumed): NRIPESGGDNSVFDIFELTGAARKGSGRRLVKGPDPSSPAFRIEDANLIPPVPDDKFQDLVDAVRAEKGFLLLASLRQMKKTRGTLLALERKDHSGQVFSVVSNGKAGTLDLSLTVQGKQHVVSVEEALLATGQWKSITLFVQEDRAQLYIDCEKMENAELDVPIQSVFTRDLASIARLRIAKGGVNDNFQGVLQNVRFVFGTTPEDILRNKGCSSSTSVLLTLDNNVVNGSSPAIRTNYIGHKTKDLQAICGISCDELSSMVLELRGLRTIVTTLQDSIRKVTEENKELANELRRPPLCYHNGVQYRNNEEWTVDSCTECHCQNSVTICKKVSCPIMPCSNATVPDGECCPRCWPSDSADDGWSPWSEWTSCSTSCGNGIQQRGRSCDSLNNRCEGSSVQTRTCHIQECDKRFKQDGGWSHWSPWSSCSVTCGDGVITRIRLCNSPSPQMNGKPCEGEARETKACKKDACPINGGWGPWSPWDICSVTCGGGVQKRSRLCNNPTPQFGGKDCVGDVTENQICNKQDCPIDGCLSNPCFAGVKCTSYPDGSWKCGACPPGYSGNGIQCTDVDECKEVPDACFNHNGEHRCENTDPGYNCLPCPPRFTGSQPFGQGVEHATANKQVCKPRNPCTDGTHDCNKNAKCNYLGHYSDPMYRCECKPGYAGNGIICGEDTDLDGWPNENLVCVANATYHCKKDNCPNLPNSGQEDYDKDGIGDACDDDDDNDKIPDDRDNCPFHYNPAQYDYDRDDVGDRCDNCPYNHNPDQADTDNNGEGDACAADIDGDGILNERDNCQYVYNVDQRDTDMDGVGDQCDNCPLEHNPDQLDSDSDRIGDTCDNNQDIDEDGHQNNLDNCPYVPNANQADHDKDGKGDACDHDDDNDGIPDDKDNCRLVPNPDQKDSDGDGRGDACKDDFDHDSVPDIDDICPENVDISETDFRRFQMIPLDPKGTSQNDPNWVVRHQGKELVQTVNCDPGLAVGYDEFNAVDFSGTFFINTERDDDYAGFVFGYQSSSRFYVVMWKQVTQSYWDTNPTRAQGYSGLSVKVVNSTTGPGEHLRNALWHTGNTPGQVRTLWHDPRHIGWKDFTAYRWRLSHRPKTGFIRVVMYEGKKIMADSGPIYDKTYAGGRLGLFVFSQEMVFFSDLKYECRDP
T2 sequence (P02452 162-1218, chain 1 of 2): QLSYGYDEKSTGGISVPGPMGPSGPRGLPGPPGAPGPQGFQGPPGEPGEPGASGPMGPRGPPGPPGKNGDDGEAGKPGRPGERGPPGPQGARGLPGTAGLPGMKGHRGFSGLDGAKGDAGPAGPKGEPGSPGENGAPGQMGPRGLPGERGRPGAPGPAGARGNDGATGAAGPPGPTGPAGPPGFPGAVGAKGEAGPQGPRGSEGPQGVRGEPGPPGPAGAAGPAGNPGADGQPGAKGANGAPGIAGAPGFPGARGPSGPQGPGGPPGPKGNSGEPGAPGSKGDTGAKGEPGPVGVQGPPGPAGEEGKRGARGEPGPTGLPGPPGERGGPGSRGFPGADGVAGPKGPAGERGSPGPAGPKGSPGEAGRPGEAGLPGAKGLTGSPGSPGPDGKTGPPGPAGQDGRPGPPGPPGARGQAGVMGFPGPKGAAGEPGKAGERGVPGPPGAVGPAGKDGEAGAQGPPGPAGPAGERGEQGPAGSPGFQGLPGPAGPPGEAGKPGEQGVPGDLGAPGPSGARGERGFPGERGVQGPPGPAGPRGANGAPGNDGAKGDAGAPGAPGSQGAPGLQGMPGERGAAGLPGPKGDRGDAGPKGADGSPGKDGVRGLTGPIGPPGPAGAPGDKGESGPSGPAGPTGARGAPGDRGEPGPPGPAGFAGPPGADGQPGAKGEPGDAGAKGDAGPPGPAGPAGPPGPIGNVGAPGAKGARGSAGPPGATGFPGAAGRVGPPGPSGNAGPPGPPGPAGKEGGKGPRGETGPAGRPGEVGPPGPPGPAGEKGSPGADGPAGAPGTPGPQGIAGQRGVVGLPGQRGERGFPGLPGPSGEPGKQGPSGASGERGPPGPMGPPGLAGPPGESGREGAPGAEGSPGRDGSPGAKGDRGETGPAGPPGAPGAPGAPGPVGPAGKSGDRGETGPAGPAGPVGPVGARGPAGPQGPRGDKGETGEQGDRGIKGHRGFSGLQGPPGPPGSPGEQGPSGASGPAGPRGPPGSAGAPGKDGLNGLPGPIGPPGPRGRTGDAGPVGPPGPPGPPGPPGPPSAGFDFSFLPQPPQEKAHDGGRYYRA
T2 sequence (P08123 80-1119, chain 2 of 2): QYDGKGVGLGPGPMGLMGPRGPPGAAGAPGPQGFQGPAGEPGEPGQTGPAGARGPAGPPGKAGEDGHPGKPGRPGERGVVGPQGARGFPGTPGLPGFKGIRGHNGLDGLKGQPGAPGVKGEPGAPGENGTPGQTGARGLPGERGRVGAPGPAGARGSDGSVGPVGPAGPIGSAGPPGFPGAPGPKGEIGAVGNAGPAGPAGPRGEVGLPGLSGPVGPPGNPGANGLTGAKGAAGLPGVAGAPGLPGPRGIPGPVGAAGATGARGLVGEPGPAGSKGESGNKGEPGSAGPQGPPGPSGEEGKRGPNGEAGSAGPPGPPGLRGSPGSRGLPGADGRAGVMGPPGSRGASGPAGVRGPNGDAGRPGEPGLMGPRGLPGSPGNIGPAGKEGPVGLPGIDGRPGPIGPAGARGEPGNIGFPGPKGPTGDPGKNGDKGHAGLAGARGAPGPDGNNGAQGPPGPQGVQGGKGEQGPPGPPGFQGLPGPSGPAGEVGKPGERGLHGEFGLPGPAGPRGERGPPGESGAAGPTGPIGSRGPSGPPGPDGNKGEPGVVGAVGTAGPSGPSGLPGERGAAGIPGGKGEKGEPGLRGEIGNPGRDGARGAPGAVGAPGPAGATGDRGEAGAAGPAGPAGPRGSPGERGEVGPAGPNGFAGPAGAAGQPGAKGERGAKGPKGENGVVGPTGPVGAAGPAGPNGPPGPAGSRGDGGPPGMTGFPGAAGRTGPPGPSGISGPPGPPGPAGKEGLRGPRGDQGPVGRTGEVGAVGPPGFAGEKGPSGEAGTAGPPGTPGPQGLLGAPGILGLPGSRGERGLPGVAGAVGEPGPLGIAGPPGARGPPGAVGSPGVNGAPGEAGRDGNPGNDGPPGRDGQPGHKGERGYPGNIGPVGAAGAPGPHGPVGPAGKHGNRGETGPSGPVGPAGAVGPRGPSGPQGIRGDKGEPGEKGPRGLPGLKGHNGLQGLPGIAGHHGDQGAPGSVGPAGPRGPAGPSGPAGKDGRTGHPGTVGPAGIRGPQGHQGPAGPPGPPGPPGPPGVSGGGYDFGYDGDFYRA

B1: purified recombinant PTRP (rPTRP), GST tag cleaved (other)
chain: MDVALGVAVTDRVARLALVDSAAPGTVIDQFVLDVAEHPVEVLTETVVGTDRSLAGENHRLVATRLCWPDQAKADELQHALQDSGVHDVAVISEAQAATALVGAAHAGSAVLLVGDETATLSVVGDPDAPPTMVAVAPVAGADATSTVDTLMARLGDQALAPGDVFLVGRSAEHTTVLADQLRAASTMRVQTPDDPTFALARGAAMAAGAATMAHPALVADATTSLPRAEAGQSGSEGEQLAYSQASDYELLPVDEYEEHDEYGAAADRSAPLSRRSLLIGNAVVAFAVIGFASLAVAVAVTIRPTAASKPVEGHQNAQPGKFMPLLPTQQQAPVPPPPPDDPTAGFQGGTIPAVQNVVPRPGTSPGVGGTPASPAPEAPAVPGVVPAPVPIPVPIIIPPFPGWQPGMPTIPTAPPTTPVTTSATTPPTTPPTTPVTTPPTTPPTTPVTTPPTTPPTTPVTTPPTTVAPTTVAPTTVAPTTVAPTTVAPATATPTTVAPQPTQQPTQQPTQQMPTQQQTVAPQTVAPAPQPPSGGRNGSGGGDLFGGF
notes: also called Proline-Threonine Repetitive Protein; Rv0538
Consider B1, for which the binding result (in the assay with elastin (human lung); in the assay with human collagen I; in assay [1]; in assay [2]; in assay [3]; in assay [4]) was “no binding (tested: 5 µg/ml)” throughout. For the same molecule, the binding result in assay [5] is given as “no binding (tested: 5 µg/ml)”; in assay [6], “binds”.

The record behind these values is US20110104194A1 (NEW YORK UNIVERSITY, published 2011).
